Key:
p65 (NF-kB) = p65 (NF-kB) (UniProt Q04207 1-549); test: EMSA; Beyotime GS009 EMSA kit; 1 uL protein + 2 uL DNA, 20 min at room temperature; 4% non-denaturing PAGE; buffer, salt and pH not stated; settings: protein: recombinant; tags: His (pET-21b(+)); blunt
PPARγ = PPARγ (mouse, UniProt P37238 1-505); test: as above; settings: protein: recombinant; blunt

p65 (NF-kB), sequence (Q04207 whole entry): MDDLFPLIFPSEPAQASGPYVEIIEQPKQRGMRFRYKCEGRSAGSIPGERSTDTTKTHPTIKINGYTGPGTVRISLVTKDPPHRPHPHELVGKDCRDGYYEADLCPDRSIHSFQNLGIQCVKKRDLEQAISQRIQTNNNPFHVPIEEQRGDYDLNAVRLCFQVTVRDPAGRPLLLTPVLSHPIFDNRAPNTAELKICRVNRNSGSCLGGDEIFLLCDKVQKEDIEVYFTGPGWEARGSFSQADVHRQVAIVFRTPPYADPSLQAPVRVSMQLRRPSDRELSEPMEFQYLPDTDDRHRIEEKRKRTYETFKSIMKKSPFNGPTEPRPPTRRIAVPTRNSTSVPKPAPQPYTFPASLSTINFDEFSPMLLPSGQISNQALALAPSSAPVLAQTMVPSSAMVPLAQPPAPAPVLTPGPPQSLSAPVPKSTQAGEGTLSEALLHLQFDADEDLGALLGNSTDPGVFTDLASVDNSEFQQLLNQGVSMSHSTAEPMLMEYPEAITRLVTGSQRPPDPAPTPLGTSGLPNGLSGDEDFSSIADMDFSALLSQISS

B1: CCL5 promoter probe (dsDNA)
DNA 1: GTCTTTTGTGGAAACTCCCCAAG
DNA 2: CTTGGGGAGTTTCCACAAAAGAC
B1: binds (p65 (NF-kB)); no binding (PPARγ).
